Results taken from article PMC6165534, “Inhibition of Homophilic Interactions and Ligand Binding of the Receptor for Advanced Glycation End Products by Heparin and Heparin-Related Carbohydrate Structures” (Medicines, 2018).

B1: sRAGE–Ig fusion protein lacking C2-domain (Fc fusion, human, UniProt Q15109 28-231, looked up)
chain: ARIGEPLVLKCKGAPKKPPQRLEWKLNTGRTEAWKVLSPQGGGPWDSVARVLPNGSLFLPAVGIQDEGIFRCQAMNRNGKETKSNYRVRVYQIPGKPEIVDSASELTAGVPNKVGTCVSEGSYPAGTLSWHLDGKPLVPNEKGVSVKEQTRRHPETGLFTLQSELMVTPARGGDPRPTFSCSFSPGLPRHRALRTAPIQPRVWE
notes: RAGE, human, extracellular part without the C2-domain, amino acids 28–231; also called delta C2; source: Drosophila S2 cells, purified (protein A-agarose chromatography)
B2: RAGE V1-domain Ig-fusion protein (Fc fusion, human, UniProt Q15109 28-119, looked up)
chain: ARIGEPLVLKCKGAPKKPPQRLEWKLNTGRTEAWKVLSPQGGGPWDSVARVLPNGSLFLPAVGIQDEGIFRCQAMNRNGKETKSNYRVRVYQ
notes: RAGE, human, V1-domain, amino acids 28–119; also called V1–Ig; RAGE V1–Fc; source: Drosophila S2 cells, purified (protein A-agarose chromatography)
B3: sRAGE–Ig fusion protein lacking C1-domain (Fc fusion, human, UniProt Q15109 28-331, looked up)
chain: ARIGEPLVLKCKGAPKKPPQRLEWKLNTGRTEAWKVLSPQGGGPWDSVARVLPNGSLFLPAVGIQDEGIFRCQAMNRNGKETKSNYRVRVYQPVPLEEVQLVVEPEGGAVAPGGTVTLTCEVPAQPSPQIHWMKDGVPLPLPPSPVLILPEIGPQDQGTYSCVATHSSHGPQESRAVSISIIEPGEEGPTAG
notes: RAGE, human, extracellular part without the C1-domain, amino acids 28–119 + 232–331; also called delta C1; source: Drosophila S2 cells, purified (protein A-agarose chromatography)

Biological target: the molecule itself
Assay: bead aggregation assay; monomeric fluorescent protein A coated beads incubated with 10 μg/mL of the Ig-fusion proteins, no other exogenous ligands; aggregation followed by fluorescence microscopy, index Nt/N0, pictures after 60 min

Row | Protein | binding result
1 | B1 | binds
2 | B2 | binds
3 | B3 | binds
